Results as given in US11130793B2, “GLP-1/GLP-2 dual agonists” (Zealand Pharma A/S, priority 2016, dated 2021).
Square brackets hold non-standard residues; d marks the D form. Aib = CC(C)(N)C(=O)O

B1: Compound 3 (peptide)
peptide: H-H[Aib]EGTFTSELATILDEQAARDFIAWLIAHKITD-OH
SMILES: CC[C@H](C)[C@H](NC(=O)[C@H](CC(C)C)NC(=O)[C@H](Cc1c[nH]c2ccccc12)NC(=O)[C@H](C)NC(=O)[C@@H](NC(=O)[C@H](Cc1ccccc1)NC(=O)[C@H](CC(=O)O)NC(=O)[C@H](CCCNC(=N)N)NC(=O)[C@H](C)NC(=O)[C@H](C)NC(=O)[C@H](CCC(N)=O)NC(=O)[C@H](CCC(=O)O)NC(=O)[C@H](CC(=O)O)NC(=O)[C@H](CC(C)C)NC(=O)[C@@H](NC(=O)[C@@H](NC(=O)[C@H](C)NC(=O)[C@H](CC(C)C)NC(=O)[C@H](CCC(=O)O)NC(=O)[C@H](CO)NC(=O)[C@@H](NC(=O)[C@H](Cc1ccccc1)NC(=O)[C@@H](NC(=O)CNC(=O)[C@H](CCC(=O)O)NC(=O)C(C)(C)NC(=O)[C@@H](N)Cc1c[nH]cn1)[C@@H](C)O)[C@@H](C)O)[C@@H](C)O)[C@@H](C)CC)[C@@H](C)CC)C(=O)N[C@@H](C)C(=O)N[C@@H](Cc1c[nH]cn1)C(=O)N[C@@H](CCCCN)C(=O)N[C@H](C(=O)N[C@H](C(=O)N[C@@H](CC(=O)O)C(=O)O)[C@@H](C)O)[C@@H](C)CC
B2: Compound 4 (peptide)
peptide: H-H[Aib]EGSFTSELATILDEQAARDFIAWLIEHKITD-OH
SMILES: CC[C@H](C)[C@H](NC(=O)[C@H](Cc1ccccc1)NC(=O)[C@H](CC(=O)O)NC(=O)[C@H](CCCNC(=N)N)NC(=O)[C@H](C)NC(=O)[C@H](C)NC(=O)[C@H](CCC(N)=O)NC(=O)[C@H](CCC(=O)O)NC(=O)[C@H](CC(=O)O)NC(=O)[C@H](CC(C)C)NC(=O)[C@@H](NC(=O)[C@@H](NC(=O)[C@H](C)NC(=O)[C@H](CC(C)C)NC(=O)[C@H](CCC(=O)O)NC(=O)[C@H](CO)NC(=O)[C@@H](NC(=O)[C@H](Cc1ccccc1)NC(=O)[C@H](CO)NC(=O)CNC(=O)[C@H](CCC(=O)O)NC(=O)C(C)(C)NC(=O)[C@@H](N)Cc1c[nH]cn1)[C@@H](C)O)[C@@H](C)O)[C@@H](C)CC)C(=O)N[C@@H](C)C(=O)N[C@@H](Cc1c[nH]c2ccccc12)C(=O)N[C@@H](CC(C)C)C(=O)N[C@H](C(=O)N[C@@H](CCC(=O)O)C(=O)N[C@@H](Cc1c[nH]cn1)C(=O)N[C@@H](CCCCN)C(=O)N[C@H](C(=O)N[C@H](C(=O)N[C@@H](CC(=O)O)C(=O)O)[C@@H](C)O)[C@@H](C)CC)[C@@H](C)CC
B3: Compound 5 (peptide)
peptide: H-H[Aib]EGTFTSELATILDEQAARDFIAWLIEHKITD-OH
SMILES: CC[C@H](C)[C@H](NC(=O)[C@H](Cc1ccccc1)NC(=O)[C@H](CC(=O)O)NC(=O)[C@H](CCCNC(=N)N)NC(=O)[C@H](C)NC(=O)[C@H](C)NC(=O)[C@H](CCC(N)=O)NC(=O)[C@H](CCC(=O)O)NC(=O)[C@H](CC(=O)O)NC(=O)[C@H](CC(C)C)NC(=O)[C@@H](NC(=O)[C@@H](NC(=O)[C@H](C)NC(=O)[C@H](CC(C)C)NC(=O)[C@H](CCC(=O)O)NC(=O)[C@H](CO)NC(=O)[C@@H](NC(=O)[C@H](Cc1ccccc1)NC(=O)[C@@H](NC(=O)CNC(=O)[C@H](CCC(=O)O)NC(=O)C(C)(C)NC(=O)[C@@H](N)Cc1c[nH]cn1)[C@@H](C)O)[C@@H](C)O)[C@@H](C)O)[C@@H](C)CC)C(=O)N[C@@H](C)C(=O)N[C@@H](Cc1c[nH]c2ccccc12)C(=O)N[C@@H](CC(C)C)C(=O)N[C@H](C(=O)N[C@@H](CCC(=O)O)C(=O)N[C@@H](Cc1c[nH]cn1)C(=O)N[C@@H](CCCCN)C(=O)N[C@H](C(=O)N[C@H](C(=O)N[C@@H](CC(=O)O)C(=O)O)[C@@H](C)O)[C@@H](C)CC)[C@@H](C)CC
B4: Compound 6 (peptide)
peptide: H-H[Aib]EGSFTSELATILDEQAARDFIAWLIHHKITD-OH
SMILES: CC[C@H](C)[C@H](NC(=O)[C@H](Cc1ccccc1)NC(=O)[C@H](CC(=O)O)NC(=O)[C@H](CCCNC(=N)N)NC(=O)[C@H](C)NC(=O)[C@H](C)NC(=O)[C@H](CCC(N)=O)NC(=O)[C@H](CCC(=O)O)NC(=O)[C@H](CC(=O)O)NC(=O)[C@H](CC(C)C)NC(=O)[C@@H](NC(=O)[C@@H](NC(=O)[C@H](C)NC(=O)[C@H](CC(C)C)NC(=O)[C@H](CCC(=O)O)NC(=O)[C@H](CO)NC(=O)[C@@H](NC(=O)[C@H](Cc1ccccc1)NC(=O)[C@H](CO)NC(=O)CNC(=O)[C@H](CCC(=O)O)NC(=O)C(C)(C)NC(=O)[C@@H](N)Cc1c[nH]cn1)[C@@H](C)O)[C@@H](C)O)[C@@H](C)CC)C(=O)N[C@@H](C)C(=O)N[C@@H](Cc1c[nH]c2ccccc12)C(=O)N[C@@H](CC(C)C)C(=O)N[C@H](C(=O)N[C@@H](Cc1c[nH]cn1)C(=O)N[C@@H](Cc1c[nH]cn1)C(=O)N[C@@H](CCCCN)C(=O)N[C@H](C(=O)N[C@H](C(=O)N[C@@H](CC(=O)O)C(=O)O)[C@@H](C)O)[C@@H](C)CC)[C@@H](C)CC
B5: Compound 7 (peptide)
peptide: H-H[Aib]EGSFTSELATILDEQAARDFIAWLIYHKITD-OH
SMILES: CC[C@H](C)[C@H](NC(=O)[C@H](Cc1ccccc1)NC(=O)[C@H](CC(=O)O)NC(=O)[C@H](CCCNC(=N)N)NC(=O)[C@H](C)NC(=O)[C@H](C)NC(=O)[C@H](CCC(N)=O)NC(=O)[C@H](CCC(=O)O)NC(=O)[C@H](CC(=O)O)NC(=O)[C@H](CC(C)C)NC(=O)[C@@H](NC(=O)[C@@H](NC(=O)[C@H](C)NC(=O)[C@H](CC(C)C)NC(=O)[C@H](CCC(=O)O)NC(=O)[C@H](CO)NC(=O)[C@@H](NC(=O)[C@H](Cc1ccccc1)NC(=O)[C@H](CO)NC(=O)CNC(=O)[C@H](CCC(=O)O)NC(=O)C(C)(C)NC(=O)[C@@H](N)Cc1c[nH]cn1)[C@@H](C)O)[C@@H](C)O)[C@@H](C)CC)C(=O)N[C@@H](C)C(=O)N[C@@H](Cc1c[nH]c2ccccc12)C(=O)N[C@@H](CC(C)C)C(=O)N[C@H](C(=O)N[C@@H](Cc1ccc(O)cc1)C(=O)N[C@@H](Cc1c[nH]cn1)C(=O)N[C@@H](CCCCN)C(=O)N[C@H](C(=O)N[C@H](C(=O)N[C@@H](CC(=O)O)C(=O)O)[C@@H](C)O)[C@@H](C)CC)[C@@H](C)CC
B6: Teduglutide ([Gly2]-hGLP-2 (1-33)) (peptide)
peptide: HGDGSFSDEMNTILDNLAARDFINWLIQTKITD

Biological target: T1, human GLP-2 receptor (hGLP2-R) (human, UniProt O95838)
T1 sequence: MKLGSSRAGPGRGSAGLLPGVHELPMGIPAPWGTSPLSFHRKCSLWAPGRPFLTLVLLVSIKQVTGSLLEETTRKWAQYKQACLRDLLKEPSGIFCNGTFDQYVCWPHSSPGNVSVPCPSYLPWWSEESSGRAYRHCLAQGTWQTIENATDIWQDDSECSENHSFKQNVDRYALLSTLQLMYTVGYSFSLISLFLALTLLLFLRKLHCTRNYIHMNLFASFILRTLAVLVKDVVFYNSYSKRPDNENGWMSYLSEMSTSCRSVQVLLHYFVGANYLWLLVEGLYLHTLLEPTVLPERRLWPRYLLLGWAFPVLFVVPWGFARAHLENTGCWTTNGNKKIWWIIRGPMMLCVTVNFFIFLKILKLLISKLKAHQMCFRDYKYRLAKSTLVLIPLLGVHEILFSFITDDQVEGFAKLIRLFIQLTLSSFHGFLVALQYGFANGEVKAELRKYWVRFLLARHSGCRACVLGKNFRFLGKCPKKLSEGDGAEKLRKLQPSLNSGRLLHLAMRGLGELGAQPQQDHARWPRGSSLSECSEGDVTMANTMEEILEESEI
Assay: cell-based or functional assay

B1 and B2 are within 1.5-fold of each other in “EC50 GLP-2 (nM); cAMP AlphaScreen” value: 0.036 nM for the first, 0.044 nM for the second.

B3 and B4 are within 1.5-fold of each other in “EC50 GLP-2 (nM); cAMP AlphaScreen” value: 0.067 nM for the first, 0.047 nM for the second.

In the case of B5, the “EC50 GLP-2 (nM); cAMP AlphaScreen” value is reported as 0.11 nM.

Biological target: human glucagon-like peptide 1 receptor (GLP-1R) (human, UniProt P43220)
Assay: cell-based or functional assay

Going from B6 to B1, the “EC50 GLP-1 (nM); cAMP AlphaScreen” value falls from 39 nM to 0.0074 nM (5300-fold).

First: B2
Second: B3
The “EC50 GLP-1 (nM); cAMP AlphaScreen” value of the first is 1.5-fold higher: 0.015 nM for the first, 0.0098 nM for the second.

B4 and B5 are within 1.5-fold of each other in “EC50 GLP-1 (nM); cAMP AlphaScreen” value: 0.014 nM for the first, 0.017 nM for the second.
